The text below walks through data of patent US20250339569A1 (3B PHARMACEUTICALS, published 2025).

To fix the notation:
B1: 3BP-4581 (peptide)
peptide: {DOTA}-QCE[dP]D[Aph(SaPr)″]LTWSC-NH2
modifications: linker 2-11 via mXylylene; also: Lu complexed in DOTA
notes: also called natLu-3BP-4501
B2: 3BP-4501 (peptide)
peptide: {DOTA}-QCE[dP]D[Aph(SaPr)]LTWSC-NH2
modifications: linker 2-11 via mXylylene
SMILES: CC(C)C[C@@H]1NC(=O)[C@H](Cc2ccc(NC(=O)CCS(N)(=O)=O)cc2)NC(=O)[C@H](CC(=O)O)NC(=O)[C@H]2CCCN2C(=O)[C@H](CCC(=O)O)NC(=O)[C@@H](NC(=O)[C@H](CCC(N)=O)NC(=O)CN2CCN(CC(=O)O)CCN(CC(=O)O)CCN(CC(=O)O)CC2)CSCc2cccc(c2)CSC[C@@H](C(N)=O)NC(=O)[C@H](CO)NC(=O)[C@H](Cc2c[nH]c3ccccc23)NC(=O)[C@H]([C@@H](C)O)NC1=O
notes: also called DPI-4501
B3: 3BP-4555 (peptide)
peptide: QCE[dP]D[Phe(3-NHCO(CH2)3SO2NH2)]LTWSC-NH2
modifications: linker 2-11 via mXylylene; not fully specified (N-terminus); also: Lu complexed in DOTA
notes: also called natLu-DPI-4452
B4: 3BP-4452 (peptide)
peptide: {DOTA-PPAc″}-QCE[dP]D[Phe(3-NHCO(CH2)3SO2NH2)]LTWSC-NH2
modifications: linker 2-11 via mXylylene; reading uncertain
notes: also called DPI-4452
B5: 3BP-4847 (peptide)
peptide: {DOTA-PPAc}-QCE[dP]D[Af3(Aytr)]LTWSC-NH2
modifications: linker 2-11 via mXylylene
B6: 3BP-4814 (peptide)
peptide: {DOTA-PPAc}-QCE[dP]D[Aph(Hspy)]LTWSC-NH2
modifications: linker 2-11 via mXylylene
B7: 3BP-4787 (peptide)
peptide: {DOTA-PPAc}-QCE[dP]D[Af3(Cshx)]LTWSC-NH2
modifications: linker 2-11 via mXylylene
B8: 3BP-4886 (peptide)
peptide: {DOTA-PPAc}-QCE[dP]D[Af3(Aype)]LTWSC-NH2
modifications: linker 2-11 via mXylylene; reading uncertain
B9: 3BP-4884 (peptide)
peptide: {DOTA-PPAc}-QCE[dP]D[Aph(Aybu)]LTWSC-NH2
modifications: linker 2-11 via mXylylene; reading uncertain
B10: 3BP-4882 (peptide)
peptide: {DOTA-PPAc}-QCE[dP]D[Af3(Hytr)]LTWSC-NH2
modifications: linker 2-11 via mXylylene; reading uncertain

Starred links: 1 amine or outer side, 2 acyl side, 3 side chain; linkers in the order of their positions; H or OH if unused. Positions of bridges follow the written chain, without caps; N, C: chain ends. Non-standard residues stand in square brackets, D forms with d. Primed or numbered codes have the meaning given here. No end group written: not given here. *: point of attachment. Af3(Aytr) = 3-amino-L-phenylalanine, ring amine acylated with triazol-1-yl acetic acid bearing a 4-hydroxamic acid group, O=C(Cn1cc(C(=O)NO)nn1)Nc1cccc(C[C@H](N[*:1])C(=O)[*:2])c1; Aph(Hspy) = 4-amino-L-phenylalanine, ring amine acylated with 4-sulfamoyl-1H-pyrrole-2-carboxylic acid, NS(=O)(=O)c1c[nH]c(C(=O)Nc2ccc(C[C@H](N[*:1])C(=O)[*:2])cc2)c1; Aph(SaPr)″ = 4-amino-L-phenylalanine, ring amine acylated with 3-sulfamoylpropanoic acid, NS(=O)(=O)CCC(=O)Nc1ccc(C[C@H](N[*:1])C(=O)[*:2])cc1; Aph(SaPr) = 4-amino-L-phenylalanine, ring amine acylated by 3-sulfamoylpropanoic acid, NS(=O)(=O)CCC(=O)Nc1ccc(C[C@H](N[*:1])C(=O)[*:2])cc1; Af3(Cshx) = 3-amino-L-phenylalanine, ring amine acylated with 4-sulfamoylcyclohexane-1-carboxylic acid; Phe(3-NHCO(CH2)3SO2NH2) = N[C@@H](Cc1cccc(NC(=O)CCCS(N)(=O)=O)c1)C(=O)O; DOTA = O=C(O)CN1CCN(CC(=O)O)CCN(CC(=O)*)CCN(CC(=O)O)CC1; PPAc = 4-carboxymethyl piperazine linker; mXylylene = c1cc(C[*:1])cc(C[*:2])c1; Af3(Aype) = not defined here; Af3(Hytr) = not defined here; Aph(Aybu) = not defined here; PPAc″ = not defined here

The target of the first assay is T1, human carbonic anhydrase IV (CAIV), biotinylated (human, UniProt P22748 19-283, limits assumed, biotinylated).
T1 construct: Bought (SinoBiological, Cat # printed 10472-1H081H); also called hCAIV-bio
T1 sequence (P22748 19-283 limits assumed): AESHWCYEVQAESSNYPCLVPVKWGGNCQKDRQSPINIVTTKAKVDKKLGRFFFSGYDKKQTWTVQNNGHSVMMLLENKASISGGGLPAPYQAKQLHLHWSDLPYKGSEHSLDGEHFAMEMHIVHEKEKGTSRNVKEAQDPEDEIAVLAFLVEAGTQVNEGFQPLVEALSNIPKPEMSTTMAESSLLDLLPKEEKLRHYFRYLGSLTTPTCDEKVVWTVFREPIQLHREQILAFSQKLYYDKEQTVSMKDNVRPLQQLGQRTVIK
In words: SPR, biotinylated CAIV captured (Biotin CAPture). The text has this: (§1) For each test compound, SPR raw data in the form of resonance units (RU) were plotted as sensorgrams using the Biacore™ T200 control software. The signal from the blank sensorgram was subtracted from that of the test compound sensorgram (blank corrected). The blank corrected sensorgram was corrected for baseline drift by subtracting the sensorgram of a SCK run without the test compound (running buffer only). […] Raw data and fit results were imported as text files in IDBS. The pKD value (negative decadic logarithm of dissociation constant) was calculated in the IDBS excel template.
For the molecule B1, the pKD was under 6 pkd.
As to B2, the pKD is under 6 pkd.
The same measure, in the same setting: with B3 the figure was under 6 pkd.
As for B4, the pKD was under 6 pkd.

For another assay, the target named is T2, human carbonic anhydrase XII (CAXII), biotinylated (human, UniProt O43570 25-301, biotinylated).
T2 construct: Bought (SinoBiological Cat #10617-H08H); also called hCAXII-bio
T2 sequence (O43570 25-301 limits assumed): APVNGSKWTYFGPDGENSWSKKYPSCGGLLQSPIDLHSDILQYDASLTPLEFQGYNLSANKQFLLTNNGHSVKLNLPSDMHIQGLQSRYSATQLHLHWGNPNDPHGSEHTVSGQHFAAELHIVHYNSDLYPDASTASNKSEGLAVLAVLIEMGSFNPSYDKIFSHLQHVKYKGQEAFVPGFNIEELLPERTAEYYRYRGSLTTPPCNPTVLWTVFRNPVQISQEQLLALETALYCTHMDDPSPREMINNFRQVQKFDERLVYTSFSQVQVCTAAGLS
Briefly: SPR, biotinylated CAXII captured (Biotin CAPture).
Description: as §1
B1 displayed a pKD of under 6 pkd.
Consider B2, for which the pKD was under 6 pkd.
Turning to B3, the pKD was under 6 pkd.
Take B4: the pKD is under 6 pkd.

The target of a further assay is T3, human carbonic anhydrase XIV (CAXIV), biotinylated (human, UniProt Q9ULX7 16-290, biotinylated).
T3 construct: Bought (SinoBiological Cat #10458-H08H); also called hCAXIV-bio
T3 sequence (Q9ULX7 16-290 limits assumed): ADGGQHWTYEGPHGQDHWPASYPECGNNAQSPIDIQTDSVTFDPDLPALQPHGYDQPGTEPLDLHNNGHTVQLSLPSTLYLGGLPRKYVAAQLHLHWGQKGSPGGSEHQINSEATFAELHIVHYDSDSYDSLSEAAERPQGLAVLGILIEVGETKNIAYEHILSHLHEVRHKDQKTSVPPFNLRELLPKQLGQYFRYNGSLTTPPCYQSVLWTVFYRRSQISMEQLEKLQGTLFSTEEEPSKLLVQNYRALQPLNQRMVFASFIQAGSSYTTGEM
Briefly: SPR, biotinylated CAXIV captured (Biotin CAPture).
Description: as §1
Background: In SPR one partner is held on a chip, and binding of the other changes the refractive index at the surface.
With B1, the pKD is under 6 pkd.
Turning to B2, the pKD is under 6 pkd.
The molecule B3 yielded a pKD of under 6 pkd.
B4 yielded a pKD of under 6 pkd.

The target of the next assay is Fc-fusion protein of human carbonic anhydrase IX (human, UniProt Q16790 38-414). Briefly: SPR, captured hCAIX-Fc; t1/2 category A: >15.0 min.
Turning to B1, the “t1/2 (half-life of the complex, SPR)” value is over 15 min.
In the case of B2, the “t1/2 (half-life of the complex, SPR)” value was over 15 min.
Consider B3, for which the “t1/2 (half-life of the complex, SPR)” value was over 15 min.
Same read-out and setting: the value for B4 was over 15 min.

For the next assay, the target named is human carbonic anhydrase IX (CAIX) (human, UniProt Q16790 38-459). In words: FACS competition, HT-29 cells, tracer 3BP-2776; pIC50 category C: 6.1-7.0. How it is done: CAIX-expressing human HT-29 colorectal cancer cells (DSMZ, RRID: CVCL_0320) were cultured in McCoys's 5A modified medium (Biochrom, #F1015) including 10% fetal calf serum (FCS), 2 mM L-glutamine, 100 U/ml penicillin and 100 μg/mL streptomycin. Cells were detached with Accutase (Biolegend, #423201) and washed in FACS buffer (PBS including 1% FCS). Cells were diluted in FACS buffer to a final concentration of 500.000 cells per ml. 200 μL of the cell suspension were transferred to a u-shaped non-binding 96-well plate (Greiner) and cells were washed in ice-cold FACS buffer.
When biotinylated compounds were used an additional incubation step with 1 μg/mL APC-Streptavidin (Miltenyi; #130-106-791) in 50 μL FACS buffer for 30 minutes on ice was performed.
Cells were washed twice with ice-cold FACS buffer and analyzed in an Attune NxT flow cytometer (Thermo Fisher). Median fluorescence intensities (MFI) of the APC/Cy5-channel were calculated by Attune NxT software.
B5 registered a pIC50 of 6.1 to 7 pic50.
In turn, B6 came in with a pIC50 of 6.1 to 7 pic50.
Molecule B7 came in with a pIC50 of 6.1 to 7 pic50.
On the same count and under the same terms, with B8 the figure was 6.1 to 7 pic50.
Turning to B9, the pIC50 lay in the range of 6.1 to 7 pic50.
Turning to B10, the pIC50 was in the range of 6.1 to 7 pic50.
